The data set concerns the molecule itself. The experiment in a line: SEC; HiPrep Sephacryl S-300 HR 16/60 column, 20 mM phosphate buffer, pH 7.4, 150 mM NaCl; each crystallin alone.

The results in this text go back to PMC9409278, “Conformational Changes of α-Crystallin Proteins Induced by Heat Stress” (International Journal of Molecular Sciences, 2022).

B1: αB crystallin (natural protein, human, UniProt P02511 1-175, looked up)
chain: MDIAIHHPWIRRPFFPFHSPSRLFDQFFGEHLLESDLFPTSTSLSPFYLRPPSFLRAPSWFDTGLSEMRLEKDRFSVNLDVKHFSPEELKVKVLGDVIEVHGKHEERQDEHGFISREFHRKYRIPADVDPLTITSSLSSDGVLTVNGPRKQVSGPERTIPITREEKPAVTAAPKK
notes: αB crystallin, human, open reading frame of the full-length gene in pET28; Homo-oligomer in solution; No removal of the His tag is mentioned; also called alpha-B crystallin; source: E. coli BL21(DE3), purified (Ni-NTA, size-exclusion chromatography)
Regarding B1, the binding result was “binds”.
